Residue numbers refer to the chain shown, from its start.
B1: AB1370026 hIgG1 (antibody, V domains shown)
VH: EVQLVESGGGLVKPGGSLRLSCAASGFTFSSYAMSWVRQAPGKGLEWVSSISSGRSYIYYADSVKGRFTISRDNAKNSLYLKMNSLRDEDTAVYYCAREMQQLALDYWGQGTLVTVSS
VL: DIQMTQSPSSLSASVGDRVTITCRASQGISNFLAWFQQAPGKAPKSLIYAASSLQSGVPSKFSGSGSGTDFTLTISSLQPEDFATYYCQQYNSYPFTFGQGTKLEIKR
B2: AB1370083 hIgG1 (antibody, V domains shown)
VH: EVQLVESGGGLVKPGGSLRLSCAASGFTFSSYNMNWVRQAPGKGLEWVSSISSGSSYIYYADSMKGRFTISRDNAKNSLFLQMNSLRAEDTAVYYCARGMTTLTFDYWGQGTLVTVSS
VL: B1 VL with N31T, A39K, G68E, N92I, F96L, Q100G, L104V
B3: AB1370095 hIgG1 (antibody, V domains shown)
VH: B2 VH with N33S, G54R, I58V, M64V, F80Y
VL: B1 VL with N31S, A39K, F96L, Q100G, L104V
B4: AB1370117 hIgG1 (antibody, V domains shown)
VH: QVQLQQSGPGLVKPSQTLSLTCAISGDSVSSDSATWNWIRQSPSRGLEWLGRTYYRSKWYSDYAVSVKSRITINPDTSKNQFSLQLNSVTPEDTAVYFCARGGAPFDYWGQGTLVTVSS
VL: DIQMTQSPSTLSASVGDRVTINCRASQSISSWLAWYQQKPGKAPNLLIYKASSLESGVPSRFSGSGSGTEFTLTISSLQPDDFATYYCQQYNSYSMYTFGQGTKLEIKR
B5: AB1370035 hIgG1 (antibody, V domains shown)
VH: QVQLQQSGPGLVKPSQTLSLTCAISGDSVSSNSAAWNWIRQSPSRGLEWLGRTYYRSNWYNDYTLSVKSRITVNPDTSKNQFSLQLNSVTPEDTAVYYCVRGVGRFDSWGQGTLVTVSS
VL: DIQMTQSPSTLSASVGDRVIITCRASQSISSWLAWYQQKPGKAPKLLIYKASSLESGVPSRFSGSGSGTEFTLTITSLQPDDFASYYCQEYKTYSIFTFGPGTKVDIKR
B6: AB1370049 hIgG1 (antibody, V domains shown)
VH: B4 VH with Q1L, S61N, F98Y, G103V, A104G, P105S
VL: not shown
B7: AB1370026 (hybridoma IgG) (antibody, V domains shown)
VH: B1 VH
VL: DIQMTQSPSSLSASVGDRVTITCRASQGISNFLAWFQQAPGKAPKSLIYAASSLQSGVPSKFSGSGSGTDFTLTISSLQPEDFATYYCQQYNSYPFTFGQGTKLEIK
notes: IgG from hybridoma of Del-1 humanised mouse, tested as supernatant ('mouse IgG', detected with anti-mouse IgG) or Phynexus purified
B8: AB1370117 (hybridoma IgG) (antibody, V domains shown)
VH: B4 VH
VL: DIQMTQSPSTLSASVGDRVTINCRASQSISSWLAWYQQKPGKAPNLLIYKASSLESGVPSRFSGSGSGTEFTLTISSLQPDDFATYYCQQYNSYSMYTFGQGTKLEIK
notes: as for B7
B9: AB1370049 (hybridoma IgG) (antibody, V domains shown)
VH: B4 VH with Q1L, S61N, F98Y, G103V, A104G, P105S
VL: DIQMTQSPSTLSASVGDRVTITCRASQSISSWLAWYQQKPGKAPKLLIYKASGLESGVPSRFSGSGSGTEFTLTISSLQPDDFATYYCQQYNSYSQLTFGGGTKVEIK
notes: as for B7
B10: AB1370035 (hybridoma IgG) (antibody, V domains shown)
VH: B5 VH
VL: DIQMTQSPSTLSASVGDRVIITCRASQSISSWLAWYQQKPGKAPKLLIYKASSLESGVPSRFSGSGSGTEFTLTITSLQPDDFASYYCQEYKTYSIFTFGPGTKVDIK
notes: as for B7
B11: AB1370083 (hybridoma IgG) (antibody, V domains shown)
VH: B2 VH
VL: B7 VL with N31T, A39K, G68E, N92I, F96L, Q100G, L104V
notes: as for B7
B12: AB1370095 (hybridoma IgG) (antibody, V domains shown)
VH: B2 VH with N33S, G54R, I58V, M64V, F80Y
VL: B7 VL with N31S, A39K, F96L, Q100G, L104V
notes: as for B7

These binders were tested against T1, Human FRα ECD-Avi-His (human, biotin on the Avi-tag (BirA) in the HTRF assays) (assay: HTRF epitope competition assay, geomean n>2; competitor DyLight 650 labelled Comparator Antibody 2).
T1 construct: also called biotinylated human FRα; folate receptor alpha
T1 sequence (chain, as listed by the source limits assumed): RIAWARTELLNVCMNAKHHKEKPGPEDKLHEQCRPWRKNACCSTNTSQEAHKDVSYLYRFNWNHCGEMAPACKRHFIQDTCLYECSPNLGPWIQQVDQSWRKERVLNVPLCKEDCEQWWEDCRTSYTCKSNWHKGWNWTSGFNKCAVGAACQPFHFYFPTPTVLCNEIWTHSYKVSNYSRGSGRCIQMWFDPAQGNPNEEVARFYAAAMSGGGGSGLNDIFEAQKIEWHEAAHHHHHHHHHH
Procedure: (§1) HTRF assays were performed in 384-well white shallow well non-binding plates (Corning, 4513) in assay buffer containing phosphate-buffered saline (PBS) (Life Technologies, 14190), 0.100 v/v bovine serum albumin (BSA) (Sigma, A9576), and 0.4 M potassium fluoride (VWR International, 26820).
(§2) HTRF epitope competition assays were set up using a titration of test IgG, 1 nM streptavidin cryptate, biotinylated human FRα and DyLight 650 labelled IgG to assay volume of 10 μl. […] Assay plates were incubated for 3-4 h at room temperature prior to fluorescence measurement.

Binder	IC50 [nM]
B1	0.177
B2	0.0806
B3	4.15
B4	9.33
B5	1.46

Each binder was assayed against T1, Human FRα ECD-Avi-His (assay: HTRF epitope competition assay, geomean n>2; competitor DyLight 650 labelled Comparator Antibody 3).
Procedure: as §1, §2

Binder	IC50 [nM]
B4	1.83
B5	0.285

What follows are binders tested against T1, Human FRα ECD-Avi-His (assay: HTRF epitope competition assay, geomean n>2; competitor DyLight 650 labelled Comparator Antibody 1).
Procedure: as §1, §2

Binder	IC50 [nM]
B1	0.032
B2	0.0296
B3	0.363

These binders were tested against T1, Human FRα ECD-Avi-His (assay: MOv19 HTRF epitope competition assay, geomean; IgG kept 2 weeks at 45°C; competitor MOv19).

Binder	IC50 [nM]
B1	0.708
B2	0.0665
B3	4.31
B4	5.48
B5	1.16

These binders were tested against T1, Human FRα ECD-Avi-His (assay: SPR (Biacore T200, 25°C); antibody captured on Protein A, FRα ECD as analyte).
Procedure: (§3) Protein A was covalently immobilised to a CM5 chip surface using standard amine coupling techniques at a concentration of 50 μg/ml in 10 mM Sodium acetate, pH 4.0. The antibody was captured onto the Protein A surface in HBS-EP+ buffer, pH 7.4 at 10 μl/min to enable FRα ECD binding. The FRα ECD was serially diluted (0.4 nM-100 nM human FRα ECD; 0.8 nM-200 nM cyno FRα ECD; 30 nM-4000 nM mouse FRα ECD and rat FRα ECD) in HBS-EP+ buffer, pH 7.4 and flowed over the chip at 50 μl/min, with 2 minutes association and 8 minutes dissociation. The chip surface was fully regenerated with pulses of 3 M MgCl₂ to remove captured antibody together with any bound FRα ECD. Multiple buffer-only injections were made under the same conditions to allow for double reference subtraction of the final sensorgram sets, which were analysed using Biacore T200 Evaluation Software to derive equilibrium dissociation constants.

Binder	Kd [nM]	koff [s⁻¹]	kon [M⁻¹ s⁻¹]
B1	1.3	0.000354	279000
B2	0.93	0.000135	145000
B3	13.5	0.00129	95700
B4	2.6	0.000762	293000
B5	0.93	0.000527	568000

Each binder was assayed against T2, Cyno FRα ECD-Avi-His (cynomolgus monkey, biotin on the Avi-tag (BirA) in the HTRF assays) in the same assay as above.
T2 construct: Soluble region with C-terminal Avi and His tags
T2 sequence (chain, as listed by the source limits assumed): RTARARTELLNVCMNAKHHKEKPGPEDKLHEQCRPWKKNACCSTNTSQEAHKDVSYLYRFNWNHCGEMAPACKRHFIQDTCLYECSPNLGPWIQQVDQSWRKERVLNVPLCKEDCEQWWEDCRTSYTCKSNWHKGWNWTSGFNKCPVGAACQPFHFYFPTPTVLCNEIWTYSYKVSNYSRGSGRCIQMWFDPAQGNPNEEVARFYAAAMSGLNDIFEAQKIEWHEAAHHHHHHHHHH
Procedure: as §3

Binder	Kd [nM]	koff [s⁻¹]	kon [M⁻¹ s⁻¹]
B1	1.8	0.000342	195000
B2	1.56	0.00016	101000
B3	19.1	0.00183	95800
B4	5.1	0.00187	364000
B5	1.1	0.000508	475000
B6	36.9	–	–

The binders below were run against T2, Cyno FRα ECD-Avi-His (assay: SPR (Biacore T200)).
Procedure: as §3

Binder	fold difference of affinity, cyno FRα against human FRα [fold]
B1	≤ 2.5
B2	≤ 2.5
B3	≤ 2.5
B4	≤ 2.5
B5	≤ 2.5

Each binder was assayed against T3, Mouse FRα ECD-Avi-His (mouse, biotin on the Avi-tag (BirA) in the HTRF assays) (assay: HTRF antigen binding assay; hybridoma supernatant, 1 nM biotinylated antigen).
T3 construct: Soluble region with C-terminal Avi and His tags
T3 sequence (chain, as listed by the source limits assumed): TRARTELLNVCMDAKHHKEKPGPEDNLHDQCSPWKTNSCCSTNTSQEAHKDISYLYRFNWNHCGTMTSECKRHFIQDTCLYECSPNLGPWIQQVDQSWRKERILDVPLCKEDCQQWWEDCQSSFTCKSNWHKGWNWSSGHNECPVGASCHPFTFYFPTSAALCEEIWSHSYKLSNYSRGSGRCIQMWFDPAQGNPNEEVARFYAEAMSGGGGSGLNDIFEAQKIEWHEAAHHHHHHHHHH
Procedure: as §1
(§4) Supernatants containing mouse IgG from hybridoma cells were incubated at a final assay dilution of 25% with 0.5 nM streptavidin-cryptate (CisBio, 610SAKLB), anti-mouse IgG AF647 (Jackson ImmunoResearch, 115-605-164) and 1 nM biotinylated human FRα, cyno FRα, mouse FRα, human FRβ or human FRγ to give a final assay volume of 10 μl, for 4 hours at room temperature before fluorescence was measured.

Binder	binding result
B7	no binding
B8	no binding
B9	no binding
B10	no binding
B11	no binding
B12	no binding

These binders were tested against T4, Human FRγ ECD-Avi-His (human, biotin on the Avi-tag (BirA) in the HTRF assays) in the same assay as above.
T4 construct: Soluble region with C-terminal Avi and His tags
T4 sequence (chain, as listed by the source limits assumed): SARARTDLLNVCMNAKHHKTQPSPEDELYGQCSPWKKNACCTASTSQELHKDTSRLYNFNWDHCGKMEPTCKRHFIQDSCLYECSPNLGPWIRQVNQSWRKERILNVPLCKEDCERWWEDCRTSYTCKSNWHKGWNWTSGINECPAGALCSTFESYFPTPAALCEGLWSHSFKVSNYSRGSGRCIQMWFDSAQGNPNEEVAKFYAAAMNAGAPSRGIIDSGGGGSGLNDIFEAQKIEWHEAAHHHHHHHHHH
Procedure: as §1, §4

Binder	binding result
B7	no binding
B8	no binding
B9	no binding
B10	no binding
B11	no binding
B12	no binding

What follows are binders tested against T5, Human FRβ ECD-Avi-His (human, biotin on the Avi-tag (BirA) in the HTRF assays) in the same assay as above.
T5 construct: Soluble region with C-terminal Avi and His tags; also called Human FRß
T5 sequence (chain, as listed by the source limits assumed): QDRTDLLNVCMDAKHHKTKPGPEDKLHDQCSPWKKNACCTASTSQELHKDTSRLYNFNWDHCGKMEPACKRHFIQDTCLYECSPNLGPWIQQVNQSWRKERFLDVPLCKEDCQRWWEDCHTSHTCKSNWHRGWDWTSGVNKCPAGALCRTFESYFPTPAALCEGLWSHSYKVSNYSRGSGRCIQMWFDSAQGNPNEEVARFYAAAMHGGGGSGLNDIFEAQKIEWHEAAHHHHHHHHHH
Procedure: as §1, §4

Binder	binding result
B7	no binding
B8	no binding
B9	no binding
B10	no binding
B11	no binding
B12	no binding

These binders were tested against T1, Human FRα ECD-Avi-His (assay: MOv19 HTRF epitope competition assay, geomean; IgG kept 2 weeks at 4°C; competitor MOv19).

Binder	IC50 [nM]
B1	0.711
B2	0.0511
B3	5.07
B4	3.75
B5	0.945

These binders were tested against T1, Human FRα ECD-Avi-His (assay: MOv19 HTRF epitope competition assay; accelerated stability study).

Binder	fold difference (IC50 45°C against 4°C) [fold]
B1	1
B2	1.3
B3	0.85
B4	1.46
B5	1.23
